# B1: C-terminal Twin-Strep-tagged recombinant human ornithine decarboxylase (ODC) (enzyme, UniProt P11926 1-461, looked up)
# chain: MNNFGNEEFDCHFLDEGFTAKDILDQKINEVSSSDDKDAFYVADLGDILKKHLRWLKALPRVTPFYAVKCNDSKAIVKTLAATGTGFDCASKTEIQLVQSLGVPPERIIYANPCKQVSQIKYAANNGVQMMTFDSEVELMKVARAHPKAKLVLRIATDDSKAVCRLSVKFGATLRTSRLLLERAKELNIDVVGVSFHVGSGCTDPETFVQAISDARCVFDMGAEVGFSMYLLDIGGGFPGSEDVKLKFEEITGVINPALDKYFPSDSGVRIIAEPGRYYVASAFTLAVNIIAKKIVLKEQTGSDDEDESSEQTFMYYVNDGVYGSFNCILYDHAHVKPLLQKRPKPDEKYYSSSIWGPTCDGLDRIVERCDLPEMHVGDWMLFENMGAYTVAAASTFNGFQRPTIYYVMSGPAWQLMQQFQNPDFPPEVEEQDASTLPVSCAWESGMKRHRAACASASINV
# notes: Cloning sites may add a few linker residues between ODC and the 3C site; also called human ODC; ODC1; source: Expi293F cells, transiently transfected, purified (Strep-Tactin chromatography, size-exclusion chromatography); not shown: Avi tag (preceded by an HRV 3C protease site), C-terminal, kept; Twin-Strep, C-terminal, kept
# Target: the molecule itself
# Assay: SEC; Superose 6 Increase 10/300 GL, 4 °C, 0.5 mL/min, running buffer 50 mM potassium pyrophosphate, 500 mM NaCl, 5% glycerol, 0.1% Tween 20, pH 7.5; elution compared with molecular weight standards; fractions checked by ODC tandem assay, Coomassie staining and western blot
protein,measurement,value
B1,stoichiometry N,2

# Source: article PMC9721421, “DMSO-tolerant ornithine decarboxylase (ODC) tandem assay optimised for high-throughput screening” (Journal of Enzyme Inhibition and Medicinal Chemistry, 2022)
